Changes are numbered by the printed parent chain. No end group written: not given here.
T1: synthetic (γ-D-Glu)5 (not fully specified (residues 1, 2, 3, 4, 5))
T1 peptide: EEEEE

B1: mAb F26G3 IgG1 subclass switch variant (antibody, V domains shown)
VH: EVQLVESGGGLVQPKGSLKLSCAASGFTFNTYAMNWVRQAPGKGLEWVARIRSKSNNYATYYADSVKDRFTISRDDSQSMLYLQMNNLKTEDTAMYYCVRGYYGWDYWGQGTSVTVSS
VL: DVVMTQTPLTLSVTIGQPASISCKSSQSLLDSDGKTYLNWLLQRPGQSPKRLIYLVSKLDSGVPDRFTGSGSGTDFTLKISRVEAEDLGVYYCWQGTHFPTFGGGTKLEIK
B2: mAb F26G3 IgG2a subclass switch variant (antibody, V domains shown)
VH: B1 VH
VL: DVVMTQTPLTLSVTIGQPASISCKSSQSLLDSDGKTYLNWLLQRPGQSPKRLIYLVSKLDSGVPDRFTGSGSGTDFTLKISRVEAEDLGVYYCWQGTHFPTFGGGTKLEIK
B3: mAb F24F2 IgG1 subclass switch variant (antibody, V domains shown)
VH: B1 VH with Y102L, Y103R, G104Y, W105L, S113T, V114L
VL: not shown
B4: mAb F26G3 IgG2b subclass switch variant (antibody, V domains shown)
VH: B1 VH
VL: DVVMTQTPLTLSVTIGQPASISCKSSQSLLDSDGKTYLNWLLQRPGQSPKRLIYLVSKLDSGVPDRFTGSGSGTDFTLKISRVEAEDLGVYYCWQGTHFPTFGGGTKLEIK
B5: mAb F24F2 IgG2b subclass switch variant (antibody, V domains shown)
VH: B1 VH with Y102L, Y103R, G104Y, W105L, S113T, V114L
VL: not shown
B6: mAb F24F2 IgG2a subclass switch variant (antibody, V domains shown)
VH: B1 VH with Y102L, Y103R, G104Y, W105L, S113T, V114L
VL: not shown

Target: T1, synthetic (γ-D-Glu)5

Point of comparison: B2, Kd 45 µM. Against it:
- B1 — 3.5-fold lower, 13 µM
- B3 — 2.5-fold lower, 18 µM
- B4 — 6.7-fold lower, 6.7 µM
- B5 — 5-fold lower, 9 µM
- B6 — 2.5-fold lower, 18 µM
